According to US20260242735A1 (UNIVERSIT T BASEL, published 2026):

How the values were obtained:
human CD33 L134A = target: T1, human CD33 L134A (human, UniProt P20138 18-364); test: alanine scan, flow cytometry, HEK293-T;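 note: antibody binding to each alanine-substituted CD33 mutant expressed transiently in HEK293-T, read as fluorescence minus background, mean of duplicates, relative to wild-type CD33 set as 100%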
T1 construct: alanine scan clone, transfected HEK293-T

human CD33 Y129A = target: T2, human CD33 Y129A (human, UniProt P20138 18-364); test: alanine scan, flow cytometry, HEK293-T;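 note: antibody binding to each alanine-substituted CD33 mutant expressed transiently in HEK293-T, read as fluorescence minus background, mean of duplicates, relative to wild-type CD33 set as 100%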
T2 construct: alanine scan clone, transfected HEK293-T

human CD33 C212A = human CD33 C212A (human, UniProt P20138 18-364); test: alanine scan, flow cytometry;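 note: HEK293-T cells transiently expressing single-residue alanine mutants of CD33 (alanine swapped to serine), antibody binding read by fluorescence in duplicate, background-subtracted, expressed relative to wild-type CD33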
human CD33 Y50I = human CD33 Y50I (human, UniProt P20138 18-364); test: flow cytometry, transfected cells
human CD33 Y50I, sequence (P20138 18-364 Y50I limits assumed): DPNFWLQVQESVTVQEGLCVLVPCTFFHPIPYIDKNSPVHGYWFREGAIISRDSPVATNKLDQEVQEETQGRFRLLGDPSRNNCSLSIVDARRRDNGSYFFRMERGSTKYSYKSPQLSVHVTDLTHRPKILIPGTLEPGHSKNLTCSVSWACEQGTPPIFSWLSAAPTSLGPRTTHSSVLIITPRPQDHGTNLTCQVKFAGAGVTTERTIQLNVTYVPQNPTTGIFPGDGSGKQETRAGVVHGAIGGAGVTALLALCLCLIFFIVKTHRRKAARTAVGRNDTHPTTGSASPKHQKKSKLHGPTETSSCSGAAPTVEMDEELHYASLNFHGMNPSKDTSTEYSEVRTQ

human CD33 Y49I = human CD33 Y49I (human, UniProt P20138 18-364); test: flow cytometry, transfected cells
human CD33 Y50L = human CD33 Y50L (human, UniProt P20138 18-364); test: flow cytometry, transfected cells
human CD33 K52L = human CD33 K52L (human, UniProt P20138 18-364); test: flow cytometry, transfected cells
human CD33 P48Y = human CD33 P48Y (human, UniProt P20138 18-364); test: flow cytometry, transfected cells
human CD33 P48Y, sequence (P20138 18-364 P48Y limits assumed): as the sequence (P20138 18-364 Y50I limits assumed) above, with P31Y, I33Y counted along it

human CD33 K52I = human CD33 K52I (human, UniProt P20138 18-364); test: flow cytometry, transfected cells
human CD33 D51K = human CD33 D51K (human, UniProt P20138 18-364); test: flow cytometry, transfected cells
human CD33 K52G = human CD33 K52G (human, UniProt P20138 18-364); test: flow cytometry, transfected cells
human CD33 Y49D = human CD33 Y49D (human, UniProt P20138 18-364); test: flow cytometry, transfected cells
human CD33 Y49D, sequence (P20138 18-364 Y49D limits assumed): as the sequence (P20138 18-364 Y50I limits assumed) above, with Y32D, I33Y counted along it

human CD33 Y50S = human CD33 Y50S (human, UniProt P20138 18-364); test: flow cytometry, transfected cells
human CD33 Y50S, sequence (P20138 18-364 Y50S limits assumed): as the sequence (P20138 18-364 Y50I limits assumed) above, with I33S counted along it

human CD33 Y49Q = human CD33 Y49Q (human, UniProt P20138 18-364); test: flow cytometry, transfected cells
human CD33 P48D = human CD33 P48D (human, UniProt P20138 18-364); test: flow cytometry, transfected cells
human CD33 P48D, sequence (P20138 18-364 P48D limits assumed): as the sequence (P20138 18-364 Y50I limits assumed) above, with P31D, I33Y counted along it

human CD33 P48G = human CD33 P48G (human, UniProt P20138 18-364); test: flow cytometry, transfected cells
human CD33 I47P = human CD33 I47P (human, UniProt P20138 18-364); test: flow cytometry, transfected cells
human CD33 S131W = human CD33 S131W (human, UniProt P20138 18-364); test: flow cytometry, transfected cells
human CD33 S131M = human CD33 S131M (human, UniProt P20138 18-364); test: flow cytometry, transfected cells
human CD33 W22S = human CD33 W22S (human, UniProt P20138 18-364); test: flow cytometry, transfected cells
human CD33 W22S, sequence (P20138 18-364 W22S limits assumed): as the sequence (P20138 18-364 Y50I limits assumed) above, with W5S, I33Y counted along it

human CD33 W22G = human CD33 W22G (human, UniProt P20138 18-364); test: flow cytometry, transfected cells
human CD33 W22G, sequence (P20138 18-364 W22G limits assumed): as the sequence (P20138 18-364 Y50I limits assumed) above, with W5G, I33Y counted along it

human CD33 P132Q = human CD33 P132Q (human, UniProt P20138 18-364); test: flow cytometry, transfected cells
human CD33 P132K = human CD33 P132K (human, UniProt P20138 18-364); test: flow cytometry, transfected cells
human CD33 P46F = human CD33 P46F (human, UniProt P20138 18-364); test: flow cytometry, transfected cells
human CD33 P46F, sequence (P20138 18-364 P46F limits assumed): as the sequence (P20138 18-364 Y50I limits assumed) above, with P29F, I33Y counted along it

human CD33 F21L = human CD33 F21L (human, UniProt P20138 18-364); test: flow cytometry, transfected cells
human CD33 F21L, sequence (P20138 18-364 F21L limits assumed): as the sequence (P20138 18-364 Y50I limits assumed) above, with F4L, I33Y counted along it

human CD33 N20E = human CD33 N20E (human, UniProt P20138 18-364); test: flow cytometry, transfected cells
human CD33 N20E, sequence (P20138 18-364 N20E limits assumed): as the sequence (P20138 18-364 Y50I limits assumed) above, with N3E, I33Y counted along it

human CD33 P19K = human CD33 P19K (human, UniProt P20138 18-364); test: flow cytometry, transfected cells
human CD33 P46H = human CD33 P46H (human, UniProt P20138 18-364); test: flow cytometry, transfected cells
human CD33 P46H, sequence (P20138 18-364 P46H limits assumed): as the sequence (P20138 18-364 Y50I limits assumed) above, with P29H, I33Y counted along it

human CD33 N20D = human CD33 N20D (human, UniProt P20138 18-364); test: flow cytometry, transfected cells
human CD33 N20D, sequence (P20138 18-364 N20D limits assumed): as the sequence (P20138 18-364 Y50I limits assumed) above, with N3D, I33Y counted along it

human CD33 P46R = human CD33 P46R (human, UniProt P20138 18-364); test: flow cytometry, transfected cells
human CD33 P46R, sequence (P20138 18-364 P46R limits assumed): as the sequence (P20138 18-364 Y50I limits assumed) above, with P29R, I33Y counted along it

human CD33 F21V = human CD33 F21V (human, UniProt P20138 18-364); test: flow cytometry, transfected cells
human CD33 F21V, sequence (P20138 18-364 F21V limits assumed): as the sequence (P20138 18-364 Y50I limits assumed) above, with F4V, I33Y counted along it

human CD33 Q24H = human CD33 Q24H (human, UniProt P20138 18-364); test: flow cytometry, transfected cells
human CD33 F44D = human CD33 F44D (human, UniProt P20138 18-364); test: flow cytometry, transfected cells
human CD33 P46S = human CD33 P46S (human, UniProt P20138 18-364); test: flow cytometry, transfected cells
human CD33 F21H = human CD33 F21H (human, UniProt P20138 18-364); test: flow cytometry, transfected cells
human CD33 N20L = human CD33 N20L (human, UniProt P20138 18-364); test: flow cytometry, transfected cells
human CD33 N20S = human CD33 N20S (human, UniProt P20138 18-364); test: flow cytometry, transfected cells
human CD33 Y49T = human CD33 Y49T (human, UniProt P20138 18-364); test: flow cytometry, transfected cells
human CD33 P48M = human CD33 P48M (human, UniProt P20138 18-364); test: flow cytometry, transfected cells
human CD33 P48K = human CD33 P48K (human, UniProt P20138 18-364); test: flow cytometry, transfected cells

B1: Refmab #5 (antibody, V domains shown)
VH: QVQLVQSGAEVKKPGASVKVSCKASGYTFTNYDINWVRQAPGQGLEWIGWIYPGDGSTKYNEKFKAKATLTADTSTSTAYMELRSLRSDDTAVYYCASGYEDAMDYWGQGTTVTVSS
VL: DIQMTQSPSSLSASVGDRVTINCKASQDINSYLSWFQQKPGKAPKTLIYRANRLVDGVPSRFSGSGSGQDYTLTISSLQPEDFATYYCLQYDEFPLTFGGGTKVEIK
notes: The alanine scan used IgG or Fab
B1 was tested, and the “Mean % WT Binding” value (human CD33 L134A) was 95.9 % WT binding and the “Mean % WT Binding” value (human CD33 Y129A) was 196 % WT binding.

B2: Refmab #5 (antibody, V domains shown)
VH: B1 VH
VL: B1 VL
notes: Full-length format is human IgG1 Fc silent (PG-LALA); also made as Fab; The alanine scan used IgG or Fab
For B2, the “Mean % WT Binding” value (human CD33 C212A) was 28.4 % WT binding.

B3: Refmab #5 (antibody, human IgG1, V domains shown)
VH: B1 VH
VL: B1 VL
B3: no binding (tested: below 20%) (human CD33 Y50I); no binding (tested: below 20%) (human CD33 Y49I); no binding (tested: below 20%) (human CD33 Y50L). B3: no binding (tested: below 20%) (human CD33 K52L); no binding (tested: below 20%) (human CD33 P48Y); no binding (tested: below 20%) (human CD33 K52I). B3: no binding (tested: below 20%) (human CD33 D51K); no binding (tested: below 20%) (human CD33 K52G); no binding (tested: below 20%) (human CD33 Y49D). B3: no binding (tested: below 20%) (human CD33 Y50S); no binding (tested: below 20%) (human CD33 Y49Q); no binding (tested: below 20%) (human CD33 P48D). B3: no binding (tested: below 20%) (human CD33 P48G); no binding (tested: below 20%) (human CD33 I47P).

B4: Refmab #6 (antibody, human IgG1, V domains shown)
VH: QVQLQQPGAEVVKPGASVKMSCKASGYTFTSYYIHWIKQTPGQGLEWVGVIYPGNDDISYNQKFQGKATLTADKSSTTAYMQLSSLTSEDSAVYYCAREVRLRYFDVWGQGTTVTVSS
VL: EIVLTQSPGSLAVSPGERVTMSCKSSQSVFFSSSQKNYLAWYQQIPGQSPRLLIYWASTRESGVPDRFTGSGSGTDFTLTISSVQPEDLAIYYCHQYLSSRTFGQGTKLEIK
B4: no binding (tested: below 20%) (human CD33 S131W); no binding (tested: below 20%) (human CD33 S131M); no binding (tested: below 20%) (human CD33 W22S). B4: no binding (tested: below 20%) (human CD33 W22G); no binding (tested: below 20%) (human CD33 P132Q); no binding (tested: below 20%) (human CD33 P132K).

B5: Refmab #1 (antibody, human IgG1, V domains shown)
VH: EVQLVQSGAEVKKPGSSVKVSCKASGYTITDSNIHWVRQAPGQSLEWIGYIYPYNGGTDYNQKFKNRATLTVDNPTNTAYMELSSLRSEDTAFYYCVNGNPWLAYWGQGTLVTVSS
VL: DIQLTQSPSTLSASVGDRVTITCRASESLDNYGIRFLTWFQQKPGKAPKLLMYAASNQGSGVPSRFSGSGSGTEFTLTISSLQPDDFATYYCQQTKEVPWSFGQGTKVEVK
notes: also called hP67.6; Absolute Antibody Cat. No. Ab00283-10.0
B5: no binding (tested: below 20%) (human CD33 P46F); no binding (tested: below 20%) (human CD33 F21L); no binding (tested: below 20%) (human CD33 N20E). B5: no binding (tested: below 20%) (human CD33 P19K); no binding (tested: below 20%) (human CD33 P46H); no binding (tested: below 20%) (human CD33 N20D). B5: no binding (tested: below 20%) (human CD33 P46R); no binding (tested: below 20%) (human CD33 F21V).

B6: Refmab #3 (antibody, human IgG1, V domains shown)
VH: QVQLVQSGAEVKKPGSSVKVSCKASGYTFTDYNMHWVRQAPGQGLEWIGYIYPYNGGTGYNQKFKSKATITADESTNTAYMELSSLRSEDTAVYYCARGRPAMDYWGQGTLVTVSS
VL: DIQMTQSPSSLSASVGDRVTITCRASESVDNYGISFMNWFQQKPGKAPKLLIYAASNQGSGVPSRFSGSGSGTDFTLTISSLQPDDFATYYCQQSKEVPWTFGQGTKVEIK
B6: no binding (tested: below 20%) (human CD33 Q24H); no binding (tested: below 20%) (human CD33 P46F); no binding (tested: below 20%) (human CD33 F44D). B6: no binding (tested: below 20%) (human CD33 F21L); no binding (tested: below 20%) (human CD33 N20E); no binding (tested: below 20%) (human CD33 P19K). B6: no binding (tested: below 20%) (human CD33 W22S); no binding (tested: below 20%) (human CD33 P46S); no binding (tested: below 20%) (human CD33 F21H). B6: no binding (tested: below 20%) (human CD33 P46H); no binding (tested: below 20%) (human CD33 W22G); no binding (tested: below 20%) (human CD33 N20D). B6: no binding (tested: below 20%) (human CD33 P46R); no binding (tested: below 20%) (human CD33 N20L); no binding (tested: below 20%) (human CD33 N20S). B6: no binding (tested: below 20%) (human CD33 F21V); no binding (tested: below 20%) (human CD33 I47P).

B7: Refmab #4 (antibody, human IgG1, V domains shown)
VH: QVQLVQSGAEVKKPGESVKVSCKASGYTFTNYGMNWVKQAPGQGLEWMGWINTYTGEPTYADKFQGRVTMTTDTSTSTAYMEIRNLGGDDTAVYYCARWSWSDGYYVYFDYWGQGTSVTVSS
VL: DIVMTQSPDSLTVSLGERTTINCKSSQSVLDSSTNKNSLAWYQQKPGQPPKLLLSWASTRESGIPDRFSGSGSGTDFTLTIDSPQPEDSATYYCQQSAHFPITFGQGTRLEIK
B7: no binding (tested: below 20%) (human CD33 Y50I); no binding (tested: below 20%) (human CD33 Y50L); no binding (tested: below 20%) (human CD33 P48Y). B7: no binding (tested: below 20%) (human CD33 Y49T); no binding (tested: below 20%) (human CD33 Y49D); no binding (tested: below 20%) (human CD33 Y50S). B7: no binding (tested: below 20%) (human CD33 P48D); no binding (tested: below 20%) (human CD33 P48G); no binding (tested: below 20%) (human CD33 P48M). B7: no binding (tested: below 20%) (human CD33 P48K).
